Molecular target: the molecule itself
Assay: SEC; 600 ug TbTryR on Superdex 200 10/300, 25 mM HEPES pH 7.5, 100 mM NaCl; mass from BioRad gel filtration standards; data not shown

B1: Trypanosoma brucei brucei trypanothione reductase (enzyme, T. b. brucei, UniProt P39051 1-492, looked up)
chain: MSKIFDLVVIGAGSGGLEAGWNAATLYKKRVAVIDVQTHHGPPHYAALGGTCVNVGCVPKKLMVTGAQYMDHLRESAGFGWEFDGSSVKANWKKLIAAKNEAVLDINKSYEGMFNDTEGLDFFLGWGSLESKNVVVVRETADPKSAVKERLQADHILLATGSWPQMPAIPGVEHCISSNEAFYLPEPPRRVLTVGGGFISVEFAGIFNAYKPPGGKVTLCYRNNLILRGFDETIREEVTKQLTANGIEIMTNENPAKVSLNTDGSKHVTFESGKTLDVDVVMMAIGRIPRTNDLQLGNVGVKLTPKGGVQVDEFSRTNVPNIYAIGDITDRLMLTPVAINEGAALVDTVFGNKPRKTDHTRVASAVFSIPPIGTCGLIEEVAAKEFEKVAVYMSSFTPLMHNISGSKYKKFVAKIVTNHSDGTVLGVHLLGDGAPEIIQAVGVCLRLNAKISDFYNTIGVHPTSAEELCSMRTPSYYYLKGEKMETLPESSL
notes: Trypanothione reductase, T. b. brucei strain S427 (MITat 1.4); complete open reading frame amplified from start to stop codon; identical at the amino acid level to genome strain 927 (GeneDB Tb10.406.0520) and to T. b. gambiense TryR; calculated subunit mass 53,156 Da; Flavoprotein: each subunit carries 1 FAD (and 1 NADPH in the crystal); In the crystal model the first residue and the last 2 …
stoichiometry N: 2
